Laboratory results: patent US20170306032A1

Experiments:
[1] = biological target: mouse EphA2 recombinant protein (Fc chimera, R&D Systems, cat#639-A2) (mouse) (UniProt Q03145); assay: end-point titration ELISA on mEphA2
[2] = biological target: human EphA2 recombinant protein (purified human EphA2 extracellular domain) (human) (UniProt P29317); assay: end-point titration ELISA on huEphA2
[3] = biological target: human EphA2 receptor expressed on cells (HEK293-EphA2, CHO-EphA2, PC-3) (human) (UniProt P29317); assay: FACS on CHO cells transfected with human EphA2
[4] = biological target: human EphA2 recombinant protein (purified human EphA2 extracellular domain) (human) (UniProt P29317); assay: SPR, Biacore 3000, immobilized huEphA2 extracellular domain
[5] = biological target: human EphA2 recombinant protein (purified human EphA2 extracellular domain) (human) (UniProt P29317); assay: SPR, Biacore 3000, immobilized huEphA2 extracellular domain, KDkinetic
[6] = biological target: human EphA2 recombinant protein (purified human EphA2 extracellular domain) (human) (UniProt P29317); assay: SPR, Biacore 3000, immobilized huEphA2 extracellular domain, KDequilibrium
[7] = biological target: mouse EphA2 recombinant protein (Fc chimera, R&D Systems, cat#639-A2) (mouse) (UniProt Q03145); assay: BLI, Octet Red, biotinylated mEphA2 on streptavidin sensors, steady state fit (column head prints EC50, title KD)
[8] = biological target: human EphA2 recombinant protein (purified human EphA2 extracellular domain) (human) (UniProt P29317); assay: BLI, Octet Red, biotinylated huEphA2 on streptavidin sensors, steady state fit (column head prints EC50, title KD)

human EphA2 recombinant protein (purified human EphA2 extracellular domain) (human), sequence (P29317 24-537): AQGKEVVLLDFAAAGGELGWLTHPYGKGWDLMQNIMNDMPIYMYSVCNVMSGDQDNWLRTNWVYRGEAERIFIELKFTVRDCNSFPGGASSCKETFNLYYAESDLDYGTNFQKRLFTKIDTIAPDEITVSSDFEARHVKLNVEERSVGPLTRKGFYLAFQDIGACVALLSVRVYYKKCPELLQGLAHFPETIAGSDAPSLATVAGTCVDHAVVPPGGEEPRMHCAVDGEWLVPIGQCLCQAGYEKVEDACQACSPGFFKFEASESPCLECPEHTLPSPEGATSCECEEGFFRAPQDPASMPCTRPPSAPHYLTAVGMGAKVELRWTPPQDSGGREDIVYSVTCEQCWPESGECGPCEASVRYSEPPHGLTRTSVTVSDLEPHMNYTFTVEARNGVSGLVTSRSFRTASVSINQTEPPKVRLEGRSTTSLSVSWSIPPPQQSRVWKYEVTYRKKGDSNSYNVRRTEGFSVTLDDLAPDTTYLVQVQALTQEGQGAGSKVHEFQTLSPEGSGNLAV
mouse EphA2 recombinant protein (Fc chimera, R&D Systems, cat#639-A2) (mouse), sequence (Q03145 26-535, change not shown): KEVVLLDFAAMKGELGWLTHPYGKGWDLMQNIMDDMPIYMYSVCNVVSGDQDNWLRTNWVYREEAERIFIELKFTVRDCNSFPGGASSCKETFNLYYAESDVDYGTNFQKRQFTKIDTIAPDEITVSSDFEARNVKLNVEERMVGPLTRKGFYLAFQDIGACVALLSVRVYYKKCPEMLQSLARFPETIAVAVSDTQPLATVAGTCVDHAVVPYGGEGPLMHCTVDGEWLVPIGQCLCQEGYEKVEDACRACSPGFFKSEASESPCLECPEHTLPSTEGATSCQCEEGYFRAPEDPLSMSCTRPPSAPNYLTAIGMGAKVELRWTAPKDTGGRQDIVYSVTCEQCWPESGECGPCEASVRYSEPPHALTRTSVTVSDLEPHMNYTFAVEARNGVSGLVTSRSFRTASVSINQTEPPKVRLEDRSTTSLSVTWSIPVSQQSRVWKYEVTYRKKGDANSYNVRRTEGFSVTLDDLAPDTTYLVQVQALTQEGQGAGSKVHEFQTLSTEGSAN
human EphA2 receptor expressed on cells (HEK293-EphA2, CHO-EphA2, PC-3) (human), sequence (P29317 24-976): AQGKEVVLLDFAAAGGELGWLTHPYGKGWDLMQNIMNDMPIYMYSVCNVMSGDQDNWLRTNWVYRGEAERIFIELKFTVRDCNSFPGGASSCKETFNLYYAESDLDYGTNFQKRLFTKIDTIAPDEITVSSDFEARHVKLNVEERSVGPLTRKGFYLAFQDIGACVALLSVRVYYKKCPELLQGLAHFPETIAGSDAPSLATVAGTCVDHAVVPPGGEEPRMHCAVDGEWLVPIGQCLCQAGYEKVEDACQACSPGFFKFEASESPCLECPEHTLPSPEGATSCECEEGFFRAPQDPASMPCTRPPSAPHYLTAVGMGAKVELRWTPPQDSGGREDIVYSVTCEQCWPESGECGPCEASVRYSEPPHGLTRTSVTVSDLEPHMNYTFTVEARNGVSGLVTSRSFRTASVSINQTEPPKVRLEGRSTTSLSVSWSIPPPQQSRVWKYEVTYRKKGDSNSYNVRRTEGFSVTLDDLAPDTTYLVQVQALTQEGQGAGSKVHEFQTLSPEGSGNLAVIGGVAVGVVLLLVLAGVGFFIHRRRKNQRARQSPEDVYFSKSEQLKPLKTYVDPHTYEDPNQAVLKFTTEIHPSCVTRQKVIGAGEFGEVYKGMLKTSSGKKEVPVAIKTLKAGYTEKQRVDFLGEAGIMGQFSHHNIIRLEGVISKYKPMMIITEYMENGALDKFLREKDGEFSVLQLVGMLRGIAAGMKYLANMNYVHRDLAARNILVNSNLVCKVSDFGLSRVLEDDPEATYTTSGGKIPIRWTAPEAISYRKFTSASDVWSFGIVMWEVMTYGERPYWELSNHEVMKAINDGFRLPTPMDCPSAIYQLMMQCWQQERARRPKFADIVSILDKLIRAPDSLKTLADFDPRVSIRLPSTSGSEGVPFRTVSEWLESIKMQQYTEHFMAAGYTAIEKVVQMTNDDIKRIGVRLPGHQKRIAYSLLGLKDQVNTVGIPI

B1: B6 modified CH2 domain (affinity matured, loop 1 PYLHDD, loop 2 of E10) (designed binder)
chain: GPSVFLFPPKPKDTLMISRTPEVTCVVVDPYLHDDEVKFNWYVDGAEVHHAQTKPRQYDPLYGYRVVSVLTVLHQDWLNGKEYKCKVSNKALPAPIEKTISKAK
[1]
  EC50: 3.5 nM
[2]
  EC50: 6.54 nM
[3]
  EC50: 151 nM
[4]
  koff: 0.0496 s⁻¹
  kon: 716000 M⁻¹ s⁻¹
[5]
  Kd: 69 nM
[6]
  Kd: 56 nM
[7]
  Kd: 30 nM
[8]
  Kd: 39 nM
